Results from article PMC12952242.

Key:
[1] = system: ZNF207 full-length K42E; assay: EMSA
[2] = system: ZNF207 full-length WT; assay: EMSA

## U1 snRNA
[1]
  Kd: 60.4 nM
[2]
  Kd: 48.7 nM
